Source: patent publication US5484732, “Transcription factor for regulation of the development of skin and hair” (The Regents of the University of California, dated 1996)

Target: the molecule itself
Test: DSS crosslinking in solution of 35S-labelled protein translated in vitro, SDS/polyacrylamide gel (self-association)
Experimental: With respect to (1), the effect of the Skn-1i inhibitory region on dimerization in solution was assayed by the ability of a homobifunctional crosslinking agent [disuccnidyl suberate (DSS)] to crosslink in vitro translated proteins.
Specifically, approximately 100,000 cpm of ^35S-labeled Skn-1i, Δ32Skn-1i, 1–99 (N/T) Skn1-i and Δ60 (N/T) Skn1-i proteins were added separately to […] of binding buffer (10 mM HEPES [pH7.8], 50 mM K CI, 5% glycerol). After 15 minutes at room temperature, […] of DSS (suspended in 5 mg/ml DMSO) or DMSO alone was added to each of the reactions. After 5 minutes, the reaction was stopped by adding SDS sample buffer to each which was then boiled prior to analyses on SDS/polyacrylamide gels. To quantitate crosslinking efficiency, monomers ("M" on FIG. 12) and dimers ("D" on FIG. 12) were excised from the gel and counted by scintillation counting.

B1: Δ32 Skn-1i (other)
chain: LQPNLLSFPQQQSTLLLPQTGPGLTSQAVGRPGLSGSSLEPHLEASQHLPGPKHLPGPGGNDEPTDLEELEKFAKTFKQRRIKLGFTQGDVGLAMGKLYGNDFSQTTISRFEALNLSFKNMCKLKPLLEKWLNDAESSPADPSASTPSSYPTLSEVFGRKRKKRTSIETNIRLTLEKRFQDNPKPSSEEISMIAEQLSMEKEVVRVWFCNRRQKEKRINCPVATPVKPPIYNSRLVSPSGSLGSLSVPPVHSTMPGTVTSSCSPGNNSRPSSPGSGLHASSPTASQNNSKAAMNPSSAAFNSSGSWYRWNHPAYLH
- binding result: no binding
